Assay [1] has as its target T1, full-length human HACE1 (HECT domain and Ankyrin repeat containing E3 Ubiquitin Protein Ligase 1), wild type, aa 1-909 (human), Q8IYU2.
T1 chain: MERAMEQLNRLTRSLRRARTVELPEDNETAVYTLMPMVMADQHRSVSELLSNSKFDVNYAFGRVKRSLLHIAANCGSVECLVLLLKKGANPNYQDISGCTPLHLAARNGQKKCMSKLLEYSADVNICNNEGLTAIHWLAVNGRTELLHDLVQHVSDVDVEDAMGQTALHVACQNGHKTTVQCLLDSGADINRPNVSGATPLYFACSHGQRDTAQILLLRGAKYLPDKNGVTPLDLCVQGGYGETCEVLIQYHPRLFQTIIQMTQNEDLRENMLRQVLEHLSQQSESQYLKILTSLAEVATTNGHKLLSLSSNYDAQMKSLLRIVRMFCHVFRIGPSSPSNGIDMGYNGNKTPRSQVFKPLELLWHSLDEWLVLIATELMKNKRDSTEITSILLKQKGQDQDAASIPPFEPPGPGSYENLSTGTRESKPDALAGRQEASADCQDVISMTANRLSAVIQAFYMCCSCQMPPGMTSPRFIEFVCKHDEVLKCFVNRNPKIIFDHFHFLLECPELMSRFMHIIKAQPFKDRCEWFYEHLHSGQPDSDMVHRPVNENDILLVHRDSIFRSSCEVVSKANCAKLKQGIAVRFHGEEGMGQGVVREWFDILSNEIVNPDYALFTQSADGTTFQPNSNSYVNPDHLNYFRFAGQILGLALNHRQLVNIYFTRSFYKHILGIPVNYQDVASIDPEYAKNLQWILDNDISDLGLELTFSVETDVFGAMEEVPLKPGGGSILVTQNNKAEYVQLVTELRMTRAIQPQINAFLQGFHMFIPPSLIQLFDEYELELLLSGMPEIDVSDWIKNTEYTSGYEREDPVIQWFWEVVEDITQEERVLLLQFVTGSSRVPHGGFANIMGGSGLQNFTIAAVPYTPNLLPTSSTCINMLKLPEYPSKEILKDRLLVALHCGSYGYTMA
Put plainly: AUC; sedimentation velocity, 40 000 rpm, 20 °C, continuous c(s) distribution model. Conditions: remark: other sources report otherwise.

For assay [2], the target named is T1, full-length human HACE1 (HECT domain …). In words: SEC; gel filtration of purified full-length HACE1 (Superdex; 20 mM HEPES pH 8.0, 150 mM NaCl, 5% glycerol, 1 mM DTT). Particulars: remark: other sources report otherwise. A general note: SEC sorts molecules by how far they enter the pores of the column.

B1: full-length human HACE1 (HECT domain and Ankyrin repeat containing E3 Ubiquitin Protein Ligase 1), wild type, aa 1-909, Q8IYU2 1-909 (enzyme)
chain: MERAMEQLNRLTRSLRRARTVELPEDNETAVYTLMPMVMADQHRSVSELLSNSKFDVNYAFGRVKRSLLHIAANCGSVECLVLLLKKGANPNYQDISGCTPLHLAARNGQKKCMSKLLEYSADVNICNNEGLTAIHWLAVNGRTELLHDLVQHVSDVDVEDAMGQTALHVACQNGHKTTVQCLLDSGADINRPNVSGATPLYFACSHGQRDTAQILLLRGAKYLPDKNGVTPLDLCVQGGYGETCEVLIQYHPRLFQTIIQMTQNEDLRENMLRQVLEHLSQQSESQYLKILTSLAEVATTNGHKLLSLSSNYDAQMKSLLRIVRMFCHVFRIGPSSPSNGIDMGYNGNKTPRSQVFKPLELLWHSLDEWLVLIATELMKNKRDSTEITSILLKQKGQDQDAASIPPFEPPGPGSYENLSTGTRESKPDALAGRQEASADCQDVISMTANRLSAVIQAFYMCCSCQMPPGMTSPRFIEFVCKHDEVLKCFVNRNPKIIFDHFHFLLECPELMSRFMHIIKAQPFKDRCEWFYEHLHSGQPDSDMVHRPVNENDILLVHRDSIFRSSCEVVSKANCAKLKQGIAVRFHGEEGMGQGVVREWFDILSNEIVNPDYALFTQSADGTTFQPNSNSYVNPDHLNYFRFAGQILGLALNHRQLVNIYFTRSFYKHILGIPVNYQDVASIDPEYAKNLQWILDNDISDLGLELTFSVETDVFGAMEEVPLKPGGGSILVTQNNKAEYVQLVTELRMTRAIQPQINAFLQGFHMFIPPSLIQLFDEYELELLLSGMPEIDVSDWIKNTEYTSGYEREDPVIQWFWEVVEDITQEERVLLLQFVTGSSRVPHGGFANIMGGSGLQNFTIAAVPYTPNLLPTSSTCINMLKLPEYPSKEILKDRLLVALHCGSYGYTMA
B1 had a percent of molecules as dimer or higher oligomers in assay [1] of 79%. The molecule also gave a stoichiometry N in assay [2] of 2.

The term stoichiometry N denotes the number of molecules, sites or subunits per partner or assembly.

For the origin of these results see PMC10520629.
